Test [1] addresses T1, CaptureSelect Kappa XL ligand.
T1 construct: also called Biotin-KappaXL; Kappa XL column
The test can be described thus: CaptureSelect Kappa XL affinity column after Protein A. The source says: Multispecific binding proteins of the present disclosure, in clarified medium or recovered from Protein A purification, may be subjected to a second purification step using a CaptureSelect™ Kappa XL (Thermo Fisher Cat. #494321001) pre-packed affinity column. Briefly, multispecific binding proteins of the present disclosure recovered from Protein A purification are subjected to a Kappa XL affinity column which has been equilibrated with a compatible buffer, such as phosphate buffered saline (PBS) at pH 7.4. The column is then washed to remove nonspecific binding components. The bound multispecific binding protein is eluted, for example, by pH gradient (such as 20 mM Tris buffer pH 7.0 to 10 mM sodium citrate buffer pH 3.0). Binding protein fractions are detected, such as by UV absorbance or SDS-PAGE, and then are pooled.
Percent flow through (% F T) and percent elution of exemplified heteromabs of the present disclosure following kappa XL column purification essentially as described herein is assessed. Briefly, various antibody formats (as set forth in Table 3) are subjected to Kappa XL column. Flow through material is considered to comprise of impurities, such as homodimers, or misassembled antibodies, whereas the Kappa XL ligand bound material (elution material) is considered to be the correctly assembled bispecific antibody.

In another test the target is T2, human TIGIT-ECD (human, UniProt Q495A1 22-141).
T2 construct: extracellular domain
T2 sequence (looked up): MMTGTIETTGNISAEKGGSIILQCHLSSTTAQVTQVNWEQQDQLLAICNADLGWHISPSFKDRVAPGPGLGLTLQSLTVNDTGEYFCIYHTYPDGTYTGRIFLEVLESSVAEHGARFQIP
The experiment in a line: ELISA, antibody at 1 µg/mL captured by anti-human-Fc, antigen titrated. The procedure:
(§1) Binding affinity of exemplified multispecific binding proteins provided herein is assessed via ELISA. Briefly, 384-well flat bottom Elisa plates are coated with 1 ug/mL anti-human-Fc protein at 20 ul/well and incubated overnight at 4° C. The following day, plates are washed 3× with wash buffer (0.05% PBS-Tween 20) and blocked for 1 hr with blocking buffer (casein, 60 μL/well) at room temperature (RT). Plates are washed 3× with wash buffer, and binding proteins as shown in Table 10 are added at 1 μg/mL in triplicates at 20 uL/well in DPBS (Dulbecco's HyClone). Plates are incubated at RT for 1 hr, washed 3× with wash buffer, and titrated antigens are added at 20 ul/well and incubated for 60 min at RT. Plates are washed 3×, and 20 uL/well NAAP substrate is added and incubated for 20 min. Plates are washed 3×, and PNPP substrate is added at 20 uL/well, and reactions are stopped, and optical density is measured using a colorimetric microplate reader set to 405 nm.

A further test deals with T3, human PD-1-ECD (human, UniProt Q15116 25-170).
T3 construct: extracellular domain
The test is described as above. The procedure: as §1

For test [2], the target named is T4, Protein A (UniProt P38507 37-327, biotin (site not stated)).
T4 construct: Reagent; also called Biotin-Protein A; Protein A ligand
The test can be described thus: ELISA, antibody titrated on goat anti-human-kappa, Biotin-Protein A at 0.5 ug/ml. The procedure: (§2) Binding of the heavy chain Fc region formats of Table 1b for exemplified IgG heteromabs to Protein A ligand may be assessed via ELISA. Briefly, 96-well flat bottom Elisa plates are coated with 2 ug/mL goat anti-human-kappa protein at 100 ul/well and incubated overnight at 4° C. The following day, plates are washed 3× with wash buffer 0.05% PBS-Tween 20 (PBS-T)) and blocked for 1 hr with blocking buffer (casein, 200 µL/well) at room temperature (RT). Plates are washed 3× with wash buffer, and binding proteins (as shown in Table 4) are added to individual wells at 10 μg/mL and serially diluted 1:3, at a volume of 100 uL/well in PBS-T. Plates are incubated at RT for 1 hr, and washed 3× with wash buffer. Biotin-Protein A at 0.5 ug/ml is added at 100 uL/well and plates are incubated for 1 hr at RT, washed 3×, and 100 uL/well of streptavidin labeled alkaline phosphatase (SA-AP) is added to each well. Plates are incubated 30 min at RT. Plates are then washed 3×, and 100 uL/well of p-Nitrophenyl Phosphate, Disodium Salt (PNAP)(Thermo Fisher Scientific) substrate is added. Reactions are stopped and optical density is measured using a colorimetric microplate reader set to 405 nm.
(In general: In an ELISA, binding on a coated surface is turned into a signal by an enzyme label.)

Test [3] addresses T4, Protein A. The test can be described thus: ELISA, Biotin-Protein A. Here is the method: as §2

Numbering of substitutions follows the chain as printed.

What is called EC50 is the concentration that produces a half-maximal response. A lower EC50 goes with greater potency.

T3 sequence (Q15116 25-170): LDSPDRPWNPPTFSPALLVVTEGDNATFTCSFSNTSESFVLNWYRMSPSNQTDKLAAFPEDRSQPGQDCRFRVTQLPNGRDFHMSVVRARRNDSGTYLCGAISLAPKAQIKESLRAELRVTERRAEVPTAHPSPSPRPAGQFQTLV

B1: PD-1-TIGIT IgG1 heteromab (DKK on PD-1 light chain Fab region only) (bispecific antibody)
heavy 1: QVQLVQSGAEVKKPGSSVKVSCKASGGTFSSYAISWVRYAPGQGLEWMGLIIPSFDTAGYAQKFQGRVAITVDESTSTAYMELSSLRSEDTAVYYCARAEHSSTGTFDYWGRGTLVTVSSASTKGPSVFPLAPSSKSTSGGTAALGCLVADYFPEPVTVSWNSGALTSGVHTFPAVLQSSGLYSLASVVTVPSSSLGTQTYICNVNHKPSNTKVDERVEPKSCDKTHTCPPCPAPEAAGGPSVFLFPPKPKDTLMISRTPEVTCVVVDVSHEDPEVKFNWYVDGVEVHNAKTKPREEQYNSTYRVVSVLTVLHQDWLNGKEYKCKVSNKALAAPIEKTISKAKGQPREPQVYTLPPSREEMTDNQVSLTCLVKGFYPSDIAVEWESNGQPENNYKTTPPVLMSDGSFFLASKLTVDKSRWQQGNVFSCSVMHEALHNHYTQKSLSLSPGK
light 1: DIQMTQSPSSVSASVGDRVTITCRASQGISSWLAWYQRKPGDAPKLLISAASSLQSGVPSRFSGSGSGTDFTLTISSLQPEDFATYYCQQANHLPFTFGGGTKVEIKRTDAAPSVFIFPPSDKQLKSGTARVVCLLNNFYPRKAKVQWKVDNALQSGNSQESVTEQDSKDSTYSLISTLTLSKADYEKHKVYACEVTHKGLSSPVTKSFNRGEC
heavy 2: EVQLVESGGGLVQPGGSLRLSCAASGFDFSSYGVPWVRKAPGKGLEWVGYIDPIFGPTYYADEVKGRFTISADDSKNSLYLQMNSLKTEDTAVYYCARDYSYGYAYALDIWGQGTLVTVSSASTKGPSVFPLAPSSKSTSGGTAALGCLVKDYFPEPVTVSWNSGALTSGVHTFPAVLQSSGLYSLSSVVTVPSSSLGTQTYICNVNHKPSNTKVDKRVEPKSCDKTHTCPPCPAPEAAGGPSVFLFPPKPKDTLMISRTPEVTCVVVDVSHEDPEVKFNWYVDGVEVHNAKTKPREEQYNSTYRVVSVLTVLHQDWLNGKEYKCKVSNKALAAPIEKTISKAKGQPRRPRVYTLPPSREEMTKNQVSLVCLVKGFYPSDIAVEWESNGQPENNYKTTPPVLDSDGSFFLYSVLTVDKSRWQQGNVFSCSVMHEALHNHYTQKSLSLSPGK
light 2: RIVMTQTPLSLSVTPGQPASISCQASQRISPYLAWYLDKPGQPPQLLISRASKLASGVPDRFSGSGSGTDFTLKISRVEAEDVGVYYCQSYYVHTSSGYAFGGGTKVEIKRTVAAPSVFIFPPSDEQLKSGTASVVCLLNNFYPREAKVQWKVDNALQSGNSQESVTEQDSKDSTYSLSSTLTLSKADYEKHKVYACEVTHQGLSSPVTKSFNRGEC
notes: also called PD-1-Tigit IgG1 heteromab (with DKK LC Fab region on PD-1 arm only)
As for B1, in test [1], the “% Elution” value came out at 80.7% and the “% Flow Through (FT)” value was found to be 19.3%. The same molecule displayed an EC50 in the test with human TIGIT-ECD of 0.0454 nM. This molecule also registered an EC50 in the test with human PD-1-ECD of 0.0108 nM.

B2: PD-1-TIGIT IgG1 heteromab (KK on PD-1 light chain Fab region only) (bispecific antibody)
heavy 1: B1 heavy 1
light 1: B1 light 1 with D110V
heavy 2: B1 heavy 2
light 2: B1 light 2
notes: also called PD-1-Tigit IgG1 heteromab (with KK LC Fab region on PD-1 arm only)
Take B2: the “% Elution” value in test [1] worked out at 74.8%. In test [1], the “% Flow Through (FT)” value is 25.2%. Also, the values for the EC50 with human TIGIT-ECD and with human PD-1-ECD were 0.0182 nM and 0.0093 nM, respectively.

B3: cMet-BAH10 IgG1 heteromab (RE on cMet heavy chain Fc region only) (bispecific antibody)
heavy 1: EVQLVESGGGLVQPGGSLRLSCAASGYTFTSYWLHWVRKAPGKGLEWVGMIDPSNSDTRFNPEFKDRFTISADTSKNTAYLQMNSLRAEDTAVYYCATYRSYVTPLDYWGQGTLVTVSSASTKGPSVFPLAPSSKSTSGGTAALGCLVKDYFPEPVTVSWNSGALTSGVATGPAVLQSSGLYSLSSVVTVPSSSLGTQTYICNVNHKPSNTKVDKKVEPKSCDKTHTCPPCPAPEAAGGPSVFLFPPKPKDTLMISRTPEVTCVVVDVSHEDPEVKFNWYVDGVEVHNAKTKPREEQYNSTYRVVSVLTVLHRDWLNGEEYKCKVSNKALPAPIEKTISKAKGQPREPQVYTLPPSREEMTDNQVSLTCLVKGFYPSDIAVEWESNGQPENNYKTTPPVLMSDGSFFLASKLTVDKSRWQQGNVFSCSVMHEALHNHYTQKSLSLSPGK
light 1: RIQMTQSPSSLSASVGDRVTITCKSSQSLLYTSSQKNYLAWYQDKPGKAPKLLIYWASTRESGVPSRFSGSGSGTDFTLTISSLQPEDFATYYCQQYYAYPWTFGQGTKVEIKRTVAAPSVFIFPPSDEQLKSGTASVVCYLNNFYPREAKVQWKVDNALQSGNSQESVTEQDSKDSTYSLWSTLTLSKADYEKHKVYACEVTHQGLSSPVTKSFNRGEC
heavy 2: QVQLVQSGAEVKKPGSSVKVSCKASGYTFTTYYLHWVRYAPGQGLEWMGWIYPGNVHAQYNEKFKGRVTITADKSTSTAYMELSSLRSEDTAVYYCARSWEGFPYWGRGTTVTVSSASTKGPSVFPLAPCSKSTSGGTAALGCLVKDYFPEPVTVSWNSGALTSGVHTFPAVLQSSGLYSLSSVVTVPSSSLGTQTYICNVNHKPSNTKVDKKVEPDSGDKTHTCPPCPAPEAAGGPSVFLFPPKPKDTLMISRTPEVTCVVVDVSHEDPEVKFNWYVDGVEVHNAKTKPREEQYNSTYRVVSVLTVLHQDWLNGKEYKCKVSNKALPAPIEKTISKAKGQPRRPRVYTLPPSREEMTKNQVSLVCLVKGFYPSDIAVEWESNGQPENNYKTTPPVLDSDGSFFLYSVLTVDKSRWQQGNVFSCSVMHEALHNHYTQKSLSLSPGK
light 2: DIQMTQSPSSLSASVGDRVTITCKASQNVGINVAWYQRKPGDAPKSLISSASYRYSGVPSRFSGSGSGTDFTLTISSLQPEDFATYFCQQYDTYPFTFGQGTKVEIKRTVAAPSVFIFPPSKEQLKSGTASVVCLLNNFYPREAKVQWKVDNALQSGNSQESVTEQDSKDSTYSLSSTLTLSKADYEKHKVYACEVTHQGLSSPVTKSFNRGEC
notes: also called cMet-BAH10 IgG1 heteromab (with RE HC Fc format on cMet arm only)
In turn, B3 came in with an EC50 with Protein A [2] of 0.56 nM. In addition, in the test with Protein A [3], the “fold decrease in binding against cMet-BAH10 IgG1 heteromab” value was roughly 1.2 fold.

B4: cMet mAb (RE on both HCs) (antibody, human IgG1, kappa, L234A L235A)
heavy: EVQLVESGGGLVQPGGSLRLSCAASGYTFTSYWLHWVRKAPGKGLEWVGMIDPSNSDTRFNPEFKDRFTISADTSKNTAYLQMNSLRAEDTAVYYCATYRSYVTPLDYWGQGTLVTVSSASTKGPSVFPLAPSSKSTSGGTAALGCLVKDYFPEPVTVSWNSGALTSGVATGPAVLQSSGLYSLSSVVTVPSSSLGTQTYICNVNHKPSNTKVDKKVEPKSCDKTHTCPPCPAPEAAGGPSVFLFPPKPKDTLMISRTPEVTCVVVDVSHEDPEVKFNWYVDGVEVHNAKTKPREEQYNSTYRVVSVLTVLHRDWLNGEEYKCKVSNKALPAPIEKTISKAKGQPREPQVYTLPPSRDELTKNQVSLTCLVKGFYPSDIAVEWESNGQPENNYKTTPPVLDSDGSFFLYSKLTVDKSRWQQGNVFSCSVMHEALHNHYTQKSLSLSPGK
light: B3 light 1
notes: IgG1 / kappa; also called cMet parental mAb (with RE HC Fc format on both HCs)
Regarding B4, a half-maximal effect with Protein A [2] (EC50) was put at 0.98 nM. The “fold decrease of binding affinity against parental” value with Protein A [3] was roughly 2 fold.

The values above are taken from patent US20230242671A1 (Eli Lilly, published 2023).
